This passage reports IC50, residual AChR on TE671 cells (α-BTX binding sites) after 3 h incubation with 1 µg/ml mAb and protection of TE671 cells against AChR degradation induced by mAb 198 (residual α-BTX binding sites) results from patent US20020081652A1.

Assay [1] deals with mAb 198. The experiment in a line: competition ELISA: fragment preincubated with mAb 198, binding of mAb 198 to coated Torpedo AChR read.
Assay [2] has as its target mAb 198. In words: competition ELISA: polypeptide preincubated with mAb 198, binding of mAb 198 to coated Torpedo AChR read. On the technique in general: ELISA stands for enzyme-linked immunosorbent assay.
The target in assay [3] is human muscle-type AChR on TE671 cells (human) (UniProt P02708). In words: cell-based or functional assay.
Assay [4] concerns the target mAb 198. In words: cell-based or functional assay.

“Hα1-210+p3A fused to glutathione S-transferase (GST) at the N-terminus (from UniProt P08515 1-218) (receptor)”: the IC50 (as a rule, the point on the concentration scale where inhibition reaches its midpoint) in the assay with mAb 198 [1] came out at 1300 nM; in the assay with mAb 198 [2] it was 180 nM.
The substance mAb 198 (antibody) had a residual AChR on TE671 cells (α-BTX binding sites) after 3 h incubation with 1 µg/ml mAb in assay [3] of 41%.
“Hα1-121 fused to glutathione S-transferase (GST) at the N-terminus (from UniProt P02708 21-141) (receptor)” showed a protection of TE671 cells against AChR degradation induced by mAb 198 (residual α-BTX binding sites) with mAb 198 [4] of 100 µg/mL.
With “Hα1-121+p3A fused to glutathione S-transferase (GST) at the N-terminus (receptor)”, the IC50 with mAb 198 [2] came out at 100 nM.
